Experimental data reported in IntAct's records for PubMed 10660620.

Target: pilra_human PILRA (UniProt Q9UKJ1)
Sequence (Q9UKJ1 whole entry): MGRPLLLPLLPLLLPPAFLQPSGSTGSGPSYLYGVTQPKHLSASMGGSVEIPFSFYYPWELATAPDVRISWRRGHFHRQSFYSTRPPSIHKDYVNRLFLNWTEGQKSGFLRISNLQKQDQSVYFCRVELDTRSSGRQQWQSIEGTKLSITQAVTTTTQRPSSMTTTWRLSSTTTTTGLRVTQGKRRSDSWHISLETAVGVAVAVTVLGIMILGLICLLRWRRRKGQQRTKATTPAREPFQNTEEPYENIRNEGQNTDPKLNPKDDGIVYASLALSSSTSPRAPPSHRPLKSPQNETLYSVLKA

Tyrosine-protein phosphatase non-receptor type 6 (Homo sapiens), P29350 D419A, sequence (P29350 whole entry D419A): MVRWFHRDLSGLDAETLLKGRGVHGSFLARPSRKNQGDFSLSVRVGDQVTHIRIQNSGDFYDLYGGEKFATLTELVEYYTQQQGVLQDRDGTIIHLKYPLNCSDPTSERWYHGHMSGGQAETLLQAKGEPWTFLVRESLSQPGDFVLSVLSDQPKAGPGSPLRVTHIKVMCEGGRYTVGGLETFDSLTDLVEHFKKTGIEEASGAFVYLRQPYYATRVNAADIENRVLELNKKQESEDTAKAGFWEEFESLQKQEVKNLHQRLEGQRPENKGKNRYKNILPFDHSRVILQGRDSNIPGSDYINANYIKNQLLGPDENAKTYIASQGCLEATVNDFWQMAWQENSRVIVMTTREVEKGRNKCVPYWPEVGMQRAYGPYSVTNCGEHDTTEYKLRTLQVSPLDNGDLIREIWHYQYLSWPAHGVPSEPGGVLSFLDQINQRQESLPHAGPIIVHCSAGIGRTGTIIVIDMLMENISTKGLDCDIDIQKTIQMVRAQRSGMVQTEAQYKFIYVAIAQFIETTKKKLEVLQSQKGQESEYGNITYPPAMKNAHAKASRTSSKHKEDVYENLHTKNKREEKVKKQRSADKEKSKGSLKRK

Tyrosine-protein phosphatase non-receptor type 6 (Homo sapiens), P29350 D419A
effect of a mutation on the interaction: increasing interaction
